{
  "source": "patent US20020098560",
  "molecules": {"B1": {"name": "Human factor VIIa/tissue factor complex (recombinant human factor VIIa with recombinant, truncated, human tissue factor apoprotein TF1-219) (protein)", "chain 1": "ANAFLEELRPGSLERECKEEQCSFEEAREIFKDAERTKLFWISYSDGDQCASSPCQNGGSCKDQLQSYICFCLPAFEGRNCETHKDDQLICVNENGGCEQYCSDHTGTKRSCRCHEGYSLLADGVSCTPTVEYPCGKIPILEKRNASKPQGRIVGGKVCPKGECPWQVLLLVNGAQLCGGTLINTIWVVSAAHCFDKIKNWRNLIAVLGEHDLSEHDGDEQSRRVAQVIIPSTYVPGTTNHDIALLRLHQPVVLTDHVVPLCLPERTFSERTLAFVRFSLVSGWGQLLDRGATALELMVLNVPRLMTQDCLQQSRKVGDSPNITEYMFCAGYSDGSKDSCKGDSGGPHATHYRGTWYLTGIVSWGQGCATVGHFGVYTRVSQYIEWLQKLMRSEPRPGVLLRAPFP", "chain 2": "SGTTNTVAAYNLTWKSTNFKTILEWEPKPVNQVYTVQISTKSGDWKSKCFYTTDTECDLTDEIVKDVKQTYLARVFSYPAGNVESTGSAGEPLYENSPEFTPYLETNLGQPTIQSFEQVGTKVNVTVEDERTLVRRNNTFLSLRDVFGKDLIYTLYYWKSSSSGKKTAKTNTNEFLIDVDKGENYCFSVQAVIPSRTVNRKSTDSPVECMGQEKGEFRE"}},
  "key": {"[1]": {"system": "Recombinant TFPI-2 (novel human Kunitz-type inhibitor encoded by clone J-2-11, expressed in BHK570 cells and purified from conditioned medium)"}, "[2]": {"molecular_target": "T1, Recombinant TFPI-2 (novel human Kunitz-type inhibitor encoded by clone J-2-11, expressed in BHK570 cells and purified from conditioned medium)", "T1 chain": "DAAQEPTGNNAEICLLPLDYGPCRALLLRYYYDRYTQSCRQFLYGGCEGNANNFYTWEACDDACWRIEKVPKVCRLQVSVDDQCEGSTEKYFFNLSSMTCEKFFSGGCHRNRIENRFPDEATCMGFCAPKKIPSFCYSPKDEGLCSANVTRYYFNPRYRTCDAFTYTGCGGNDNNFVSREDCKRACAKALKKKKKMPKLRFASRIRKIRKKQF"}},
  "data": [
    {"molecule": "Human factor Xa", "values": [
      {"measurement": "amidolytic activity of 20 nM factor Xa towards chromogenic substrate S-2222 (absorbance at 405 nm)", "setting": "[1]", "result": "Recombinant TFPI-2 was shown to weakly inhibit the amidolytic activity of 20 nM factor Xa towards the chromogenic substrate S-2222 in a dose-dependent manner."}
    ]},
    {"molecule": "Human thrombin", "values": [
      {"measurement": "amidolytic activity of human thrombin towards chromogenic substrate S-2238 (absorbance at 405 nm)", "setting": "[1]", "result": "Recombinant TFPI-2 was shown to have no effect on the amidolytic activity of human thrombin towards S-2238."}
    ]},
    {"molecule": "B1", "values": [
      {"measurement": "amidolytic activity of 20 nM factor VIIa-tissue factor towards chromogenic substrate S-2288 (absorbance at 405 nm)", "setting": "[2]", "result": "Recombinant TFPI-2 was shown to inhibit the amidolytic activity of 20 nM factor VIIa-tissue factor towards the chromogenic substrate S-2288 in a dose-dependent manner."}
    ]}
  ]
}
